Laboratory results as given in publication PMC9970984.

Target: RNA polymerase II (RNAP II), endogenous
Assay: Co-IP (IP: myc, Western blot for RNA Pol II, band intensity printed below lanes)
Conditions: HCT116 cells transfected with myc-KAT8 WT or myc-KAT8 2KR plasmid; parent: 1.0

ratio to parent: 3.5
Substance: myc-KAT8 (lysine acetyltransferase 8), wild type (from UniProt Q9H7Z6) K168R; K175R
